Tests used:
[1] = target: T1, recombinant human αvβ8 protein (PARS-17102) (human); experiment: SPR binding assay, experiment 2, antibody as ligand, aVb8 as sample
T1 construct: also called hu.aVb8.17102; not shown: C-terminal acid/basic coils and any purification tags
T1 alpha: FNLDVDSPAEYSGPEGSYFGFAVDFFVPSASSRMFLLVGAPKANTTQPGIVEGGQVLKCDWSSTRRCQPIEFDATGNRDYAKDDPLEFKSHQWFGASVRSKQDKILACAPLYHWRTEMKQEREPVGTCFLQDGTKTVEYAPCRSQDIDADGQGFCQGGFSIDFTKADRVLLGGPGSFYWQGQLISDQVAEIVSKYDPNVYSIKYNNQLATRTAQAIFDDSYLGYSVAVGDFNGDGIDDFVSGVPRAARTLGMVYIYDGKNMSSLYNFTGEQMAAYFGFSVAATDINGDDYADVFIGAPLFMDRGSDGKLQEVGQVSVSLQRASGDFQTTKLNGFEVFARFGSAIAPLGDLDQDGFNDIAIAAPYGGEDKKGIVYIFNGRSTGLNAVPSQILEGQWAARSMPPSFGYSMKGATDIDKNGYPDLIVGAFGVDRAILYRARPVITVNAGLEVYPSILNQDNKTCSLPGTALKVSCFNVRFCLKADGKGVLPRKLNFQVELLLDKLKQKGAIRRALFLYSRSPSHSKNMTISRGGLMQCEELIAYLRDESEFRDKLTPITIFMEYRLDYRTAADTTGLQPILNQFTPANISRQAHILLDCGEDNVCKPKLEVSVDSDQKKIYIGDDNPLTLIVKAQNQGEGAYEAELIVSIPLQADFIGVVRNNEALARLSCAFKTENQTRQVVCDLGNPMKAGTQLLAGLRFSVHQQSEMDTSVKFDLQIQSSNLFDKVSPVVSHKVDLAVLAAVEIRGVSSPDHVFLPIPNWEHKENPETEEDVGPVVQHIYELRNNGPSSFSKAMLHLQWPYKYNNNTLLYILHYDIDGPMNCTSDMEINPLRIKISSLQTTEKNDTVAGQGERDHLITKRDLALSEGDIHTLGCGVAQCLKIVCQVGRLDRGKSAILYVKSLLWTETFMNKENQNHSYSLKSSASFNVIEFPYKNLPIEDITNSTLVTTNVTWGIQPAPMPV
T1 beta: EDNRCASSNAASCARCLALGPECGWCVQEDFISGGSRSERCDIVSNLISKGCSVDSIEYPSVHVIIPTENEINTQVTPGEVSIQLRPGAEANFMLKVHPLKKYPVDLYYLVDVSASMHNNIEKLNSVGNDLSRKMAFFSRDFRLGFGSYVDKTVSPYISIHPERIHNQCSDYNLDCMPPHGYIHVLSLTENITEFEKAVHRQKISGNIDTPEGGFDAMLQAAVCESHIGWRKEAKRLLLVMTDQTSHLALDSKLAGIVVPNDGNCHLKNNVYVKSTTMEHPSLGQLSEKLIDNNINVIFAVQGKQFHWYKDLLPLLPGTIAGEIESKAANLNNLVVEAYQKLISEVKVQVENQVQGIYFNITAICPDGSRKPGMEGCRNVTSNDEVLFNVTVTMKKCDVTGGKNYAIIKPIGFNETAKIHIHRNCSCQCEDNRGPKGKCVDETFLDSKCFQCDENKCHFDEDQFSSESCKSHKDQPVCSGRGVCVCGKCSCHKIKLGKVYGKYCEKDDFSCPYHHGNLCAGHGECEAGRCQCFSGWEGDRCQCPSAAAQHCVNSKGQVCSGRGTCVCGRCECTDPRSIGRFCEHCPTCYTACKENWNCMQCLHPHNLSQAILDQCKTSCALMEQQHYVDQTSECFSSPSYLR

[2] = target: T2, recombinant mouse αvβ8 protein (PARS-17103) (murine, UniProt P43406 31-988; Q0VBD0 43-681, limits assumed); experiment: as above
T2 construct: Made in house; also called mu.aVb8.17103

cyno.aVb8.13650 = target: T3, cyno.aVb8.13650 (cynomolgus, UniProt A0A2K5WCD3 31-992; G7P0S0 43-684); experiment: as above
T3 construct: Carries another lot/construct number than cyno.aVb8-19393; kept apart; also called cynomolgus αvβ8

human αvβ3 = target: T4, human αvβ3 (human, UniProt P06756 31-992; P05106 27-718); experiment: SPR binding assay, sample hu.aVb1,3,5,6
T4 construct: Counter-screen integrin; construct not described; also called hu.aVb3; αV03

human αvβ5 = target: T5, human αvβ5 (human, UniProt P06756 31-992; P18084 24-719); experiment: SPR binding assay, sample hu.aVb1,3,5,6
T5 construct: Counter-screen integrin; construct not described; also called hu.aVb5; αV05

human αvβ6 = target: T6, human αvβ6 (human, UniProt P06756 31-992; P18564 22-709); experiment: SPR binding assay, sample hu.aVb1,3,5,6
T6 construct: Counter-screen integrin; construct not described; also called hu.aVb6; αV06

human αvβ1 = target: T7, human αvβ1 (human, UniProt P06756 31-992; P05556 21-728); experiment: SPR binding assay, sample hu.aVb1,3,5,6
T7 construct: Counter-screen integrin; construct not described; also called hu.aVb1; αVP1

[3] = target: T1, recombinant human αvβ8 protein …; experiment: SPR binding assay, experiment 1, antibody as ligand, aVb8 as sample
[4] = target: T2, recombinant mouse αvβ8 protein …; experiment: as above
[5] = target: T8, recombinant cynomolgus monkey αvβ8 protein (PARS-19393) (cynomolgus monkey, UniProt A0A2K5WCD3 31-992; G7P0S0 43-684); experiment: as above
T8 construct: also called cyno.aVb8-19393; cyno.aVb8

T2 sequence (P43406 31-988 limits assumed, chain 1 of 2): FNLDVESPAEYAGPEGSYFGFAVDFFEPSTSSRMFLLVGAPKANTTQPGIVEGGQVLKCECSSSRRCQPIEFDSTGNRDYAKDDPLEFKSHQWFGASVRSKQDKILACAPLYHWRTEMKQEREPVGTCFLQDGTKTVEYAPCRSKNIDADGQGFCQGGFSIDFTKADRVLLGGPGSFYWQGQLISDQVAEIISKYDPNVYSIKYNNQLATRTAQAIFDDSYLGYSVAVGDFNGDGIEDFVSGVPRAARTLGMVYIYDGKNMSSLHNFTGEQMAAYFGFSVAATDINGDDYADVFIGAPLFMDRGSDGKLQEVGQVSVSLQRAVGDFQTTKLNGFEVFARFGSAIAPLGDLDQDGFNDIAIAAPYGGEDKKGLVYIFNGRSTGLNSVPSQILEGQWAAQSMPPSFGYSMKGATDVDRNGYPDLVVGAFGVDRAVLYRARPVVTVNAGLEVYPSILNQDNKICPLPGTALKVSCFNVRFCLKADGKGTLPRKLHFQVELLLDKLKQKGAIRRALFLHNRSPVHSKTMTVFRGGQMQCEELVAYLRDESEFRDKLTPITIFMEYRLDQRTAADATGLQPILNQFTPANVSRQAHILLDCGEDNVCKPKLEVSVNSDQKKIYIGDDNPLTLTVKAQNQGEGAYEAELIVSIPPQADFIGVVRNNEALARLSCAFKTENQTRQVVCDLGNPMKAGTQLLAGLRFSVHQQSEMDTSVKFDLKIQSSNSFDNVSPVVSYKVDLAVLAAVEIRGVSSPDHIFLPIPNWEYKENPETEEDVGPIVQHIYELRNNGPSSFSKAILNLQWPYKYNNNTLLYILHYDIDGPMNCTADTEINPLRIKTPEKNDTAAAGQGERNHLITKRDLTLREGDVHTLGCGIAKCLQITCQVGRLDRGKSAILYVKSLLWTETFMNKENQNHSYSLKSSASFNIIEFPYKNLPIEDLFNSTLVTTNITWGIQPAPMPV
T2 sequence (Q0VBD0 43-681 limits assumed, chain 2 of 2): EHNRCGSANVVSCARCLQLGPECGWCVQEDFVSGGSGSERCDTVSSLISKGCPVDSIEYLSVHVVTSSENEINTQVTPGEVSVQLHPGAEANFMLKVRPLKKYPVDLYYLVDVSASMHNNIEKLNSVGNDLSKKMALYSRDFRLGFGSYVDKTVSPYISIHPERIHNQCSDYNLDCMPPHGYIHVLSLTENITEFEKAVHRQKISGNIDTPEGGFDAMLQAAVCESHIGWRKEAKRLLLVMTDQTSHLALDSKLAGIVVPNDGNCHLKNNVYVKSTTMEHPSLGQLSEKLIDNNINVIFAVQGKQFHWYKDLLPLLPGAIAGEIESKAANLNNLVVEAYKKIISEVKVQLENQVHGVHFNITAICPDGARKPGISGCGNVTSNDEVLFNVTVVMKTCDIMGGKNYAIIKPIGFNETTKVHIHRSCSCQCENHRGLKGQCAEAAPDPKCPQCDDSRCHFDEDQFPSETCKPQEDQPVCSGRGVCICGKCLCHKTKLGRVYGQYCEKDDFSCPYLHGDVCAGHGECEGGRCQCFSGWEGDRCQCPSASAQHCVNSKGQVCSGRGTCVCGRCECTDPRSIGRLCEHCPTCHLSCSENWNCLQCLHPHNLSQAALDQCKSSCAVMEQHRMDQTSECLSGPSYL
T5 sequence (P18084 24-719 limits assumed, one chain of several): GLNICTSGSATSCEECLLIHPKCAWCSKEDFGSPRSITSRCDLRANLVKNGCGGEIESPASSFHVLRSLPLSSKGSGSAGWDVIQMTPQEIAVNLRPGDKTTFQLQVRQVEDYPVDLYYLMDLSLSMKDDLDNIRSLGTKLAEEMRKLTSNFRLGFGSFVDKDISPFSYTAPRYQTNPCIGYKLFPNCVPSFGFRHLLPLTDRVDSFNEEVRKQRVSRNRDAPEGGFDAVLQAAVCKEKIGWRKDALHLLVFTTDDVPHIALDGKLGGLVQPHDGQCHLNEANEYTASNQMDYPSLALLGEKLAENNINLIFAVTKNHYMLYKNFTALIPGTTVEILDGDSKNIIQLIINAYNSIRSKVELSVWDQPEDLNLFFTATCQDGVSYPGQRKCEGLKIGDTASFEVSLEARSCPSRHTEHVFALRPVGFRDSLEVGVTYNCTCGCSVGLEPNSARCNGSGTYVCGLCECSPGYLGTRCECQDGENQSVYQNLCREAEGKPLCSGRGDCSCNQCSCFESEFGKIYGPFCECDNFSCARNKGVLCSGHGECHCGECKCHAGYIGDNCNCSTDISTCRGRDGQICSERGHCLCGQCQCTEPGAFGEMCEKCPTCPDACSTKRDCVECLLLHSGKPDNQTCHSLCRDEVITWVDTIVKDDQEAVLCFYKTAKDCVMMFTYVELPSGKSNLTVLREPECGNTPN
T7 sequence (P05556 21-728 limits assumed, one chain of several): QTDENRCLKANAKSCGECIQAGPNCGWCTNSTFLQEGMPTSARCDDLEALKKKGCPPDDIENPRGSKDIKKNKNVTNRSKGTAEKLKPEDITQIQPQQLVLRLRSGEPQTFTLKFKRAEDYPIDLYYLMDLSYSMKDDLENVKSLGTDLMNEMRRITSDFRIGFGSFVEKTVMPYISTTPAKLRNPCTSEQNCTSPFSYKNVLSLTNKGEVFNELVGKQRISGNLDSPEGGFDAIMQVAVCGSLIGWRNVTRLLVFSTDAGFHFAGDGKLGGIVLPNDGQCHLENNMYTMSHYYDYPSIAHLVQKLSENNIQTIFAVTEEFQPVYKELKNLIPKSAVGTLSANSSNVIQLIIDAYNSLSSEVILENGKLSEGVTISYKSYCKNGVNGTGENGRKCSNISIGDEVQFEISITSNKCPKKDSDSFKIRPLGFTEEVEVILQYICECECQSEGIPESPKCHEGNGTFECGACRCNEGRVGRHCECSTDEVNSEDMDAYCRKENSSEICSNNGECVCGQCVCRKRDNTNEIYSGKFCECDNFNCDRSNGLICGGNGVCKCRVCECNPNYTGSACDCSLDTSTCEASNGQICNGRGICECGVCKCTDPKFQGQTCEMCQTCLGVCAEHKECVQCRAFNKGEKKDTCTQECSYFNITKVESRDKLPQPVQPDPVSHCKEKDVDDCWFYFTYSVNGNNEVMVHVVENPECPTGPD
T6 sequence (P18564 22-709 limits assumed, one chain of several): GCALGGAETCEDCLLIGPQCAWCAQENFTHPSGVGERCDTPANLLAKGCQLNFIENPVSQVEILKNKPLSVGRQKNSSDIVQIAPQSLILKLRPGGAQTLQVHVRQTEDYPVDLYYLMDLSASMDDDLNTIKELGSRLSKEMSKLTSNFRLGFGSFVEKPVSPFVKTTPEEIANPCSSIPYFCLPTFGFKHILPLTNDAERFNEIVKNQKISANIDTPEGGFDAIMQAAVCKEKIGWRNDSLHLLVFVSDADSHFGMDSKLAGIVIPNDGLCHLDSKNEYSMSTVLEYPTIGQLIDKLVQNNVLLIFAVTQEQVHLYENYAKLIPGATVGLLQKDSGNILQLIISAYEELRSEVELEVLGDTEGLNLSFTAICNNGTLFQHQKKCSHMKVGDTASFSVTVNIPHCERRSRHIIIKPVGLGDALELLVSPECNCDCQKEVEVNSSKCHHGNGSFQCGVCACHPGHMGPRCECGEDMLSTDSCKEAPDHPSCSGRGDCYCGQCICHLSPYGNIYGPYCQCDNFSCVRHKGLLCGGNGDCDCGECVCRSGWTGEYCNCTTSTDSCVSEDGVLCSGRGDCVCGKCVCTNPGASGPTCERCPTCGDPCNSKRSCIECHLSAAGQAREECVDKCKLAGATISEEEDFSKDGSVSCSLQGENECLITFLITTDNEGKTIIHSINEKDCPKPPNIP
T4 sequence (P05106 27-718 limits assumed, one chain of several): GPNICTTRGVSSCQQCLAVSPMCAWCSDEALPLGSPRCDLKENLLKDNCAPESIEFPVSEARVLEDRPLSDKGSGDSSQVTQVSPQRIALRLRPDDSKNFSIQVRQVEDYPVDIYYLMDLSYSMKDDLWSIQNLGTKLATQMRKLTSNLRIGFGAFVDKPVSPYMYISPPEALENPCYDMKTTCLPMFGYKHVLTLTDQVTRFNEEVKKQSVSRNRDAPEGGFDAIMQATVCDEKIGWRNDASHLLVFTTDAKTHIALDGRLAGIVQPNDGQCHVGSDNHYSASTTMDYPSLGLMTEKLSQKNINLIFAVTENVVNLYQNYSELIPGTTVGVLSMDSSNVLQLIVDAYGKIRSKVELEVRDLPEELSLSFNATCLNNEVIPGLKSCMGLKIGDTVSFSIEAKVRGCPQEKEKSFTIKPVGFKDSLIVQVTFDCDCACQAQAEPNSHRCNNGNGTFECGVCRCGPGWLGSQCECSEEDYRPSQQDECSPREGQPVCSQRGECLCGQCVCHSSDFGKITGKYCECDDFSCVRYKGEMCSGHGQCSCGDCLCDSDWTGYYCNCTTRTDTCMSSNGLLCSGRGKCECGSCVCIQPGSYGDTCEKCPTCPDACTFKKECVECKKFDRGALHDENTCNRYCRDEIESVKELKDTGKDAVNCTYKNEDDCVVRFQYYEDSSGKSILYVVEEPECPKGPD

B1: Hu.aVb8-92.H13L1 (aVb8-92.H13L1.hIgG1.LALAPG) (antibody, V domains shown)
VH: EQQLLESGGGLVQPGGSLRLSCAASGFSLSSYAMGWVRQAPGKGLEWIGVIRKDDNTYYGNWAKGRFTISRDSSKNTLYLQMNSLRAEDTAVYFCARALNTYVGFPYFNIWGPGTLVTVSS
VL: DAVLTQSPDSLAVSLGERATINCQSIKSVGDNKWLAWYQQKPGQPPKLLIYDASDLASGVPDRFSGSGSRTDFTLTISSLQAEDVAVYYCAGSVSSGDSGFGGGTKVEIKR
notes: Human IgG1 LALAPG; also called PARS-20463-65 (IH) aVb8-92.H13L1.hIgG1.LALAPG; humanized αvβ8-92
Work on B1 yielded a Kd [1] of 2.95 nM, a koff [1] of 0.000195 s⁻¹ and a kon [1] of 66100 M⁻¹ s⁻¹. For the same binder, the Kd [2] was 3.42 nM, the koff [2] was 0.000236 s⁻¹ and the kon [2] was 69100 M⁻¹ s⁻¹. For the same binder, the Kd (cyno.aVb8.13650) was 12.9 nM, the koff (cyno.aVb8.13650) was 0.000443 s⁻¹ and the kon (cyno.aVb8.13650) was 34500 M⁻¹ s⁻¹. B1: no binding (human αvβ3); no binding (human αvβ5); no binding (human αvβ6). The binding result (human αvβ1) was “no binding”, the Kd [3] was 10.1 nM and the koff [3] was 0.000283 s⁻¹. The kon [3] was 28000 M⁻¹ s⁻¹, the Kd [4] was 9.91 nM and the koff [4] was 0.000311 s⁻¹. It also gave a kon [4] of 31400 M⁻¹ s⁻¹, a Kd [5] of 11.1 nM and a koff [5] of 0.000284 s⁻¹. For the same binder, the kon [5] was 25500 M⁻¹ s⁻¹.
